Test results reported in doi:10.1101/2025.05.26.656162.

Target: Sam68 N-terminal region (human, UniProt Q07666 1-96)
Assay: single-molecule nanoaperture optical tweezers

Sam68 N-terminal region, sequence (Q07666 1-96): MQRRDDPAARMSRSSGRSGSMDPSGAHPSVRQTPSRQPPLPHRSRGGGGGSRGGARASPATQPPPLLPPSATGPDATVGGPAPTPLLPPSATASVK

## GGGUGACACACUAGCUAUAGCAUUAAAAGACCGAGCAAGU (ssRNA) [G8.5 RNA]
  Kd: ~8 µM
